In IntAct's records for PubMed 31515488:

B1: Nucleoporin p54 (Homo sapiens), Q7Z3B4 (parent)
chain: MAFNFGAPSGTSGTAAATAAPAGGFGGFGTTSTTAGSAFSFSAPTNTGTTGLFGGTQNKGFGFGTGFGTTTGTSTGLGTGLGTGLGFGGFNTQQQQQTTLGGLFSQPTQAPTQSNQLINTASALSAPTLLGDERDAILAKWNQLQAFWGTGKGYFNNNIPPVEFTQENPFCRFKAVGYSCMPSNKDEDGLVVLVFNKKETEIRSQQQQLVESLHKVLGGNQTLTVNVEGTKTLPDDQTEVVIYVVERSPNGTSRRVPATTLYAHFEQANIKTQLQQLGVTLSMTRTELSPAQIKQLLQNPPAGVDPIIWEQAKVDNPDSEKLIPVPMVGFKELLRRLKVQDQMTKQHQTRLDIISEDISELQKNQTTSVAKIAQYKRKLMDLSHRTLQVLIKQEIQRKSGYAIQADEEQLRVQLDTIQGELNAPTQFKGRLNELMSQIRMQNHFGAVRSEERYYIDADLLREIKQHLKQQQEGLSHLISIIKDDLEDIKLVEHGLNETIHIRGGVFS
B2: Centrosomal protein of 55 kDa (Homo sapiens), Q53EZ4 (parent)
chain: MSSRSTKDLIKSKWGSKPSNSKSETTLEKLKGEIAHLKTSVDEITSGKGKLTDKERHRLLEKIRVLEAEKEKNAYQLTEKDKEIQRLRDQLKARYSTTTLLEQLEETTREGERREQVLKALSEEKDVLKQQLSAATSRIAELESKTNTLRLSQTVAPNCFNSSINNIHEMEIQLKDALEKNQQWLVYDQQREVYVKGLLAKIFELEKKTETAAHSLPQQTKKPESEGYLQEEKQKCYNDLLASAKKDLEVERQTITQLSFELSEFRRKYEETQKEVHNLNQLLYSQRRADVQHLEDDRHKTEKIQKLREENDIARGKLEEEKKRSEELLSQVQFLYTSLLKQQEEQTRVALLEQQMQACTLDFENEKLDRQHVQHQLHVILKELRKARNQITQLESLKQLHEFAITEPLVTFQGETENREKVAASPKSPTAALNESLVECPKCNIQYPATEHRDLLVHVEYCSK
partner: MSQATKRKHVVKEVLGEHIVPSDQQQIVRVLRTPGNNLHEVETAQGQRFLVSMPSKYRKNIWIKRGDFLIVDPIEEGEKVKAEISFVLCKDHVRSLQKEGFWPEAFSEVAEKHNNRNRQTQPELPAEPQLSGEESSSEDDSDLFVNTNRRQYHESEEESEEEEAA
B3: Migration and invasion-inhibitory protein (Homo sapiens), Q5JXC2 (parent)
chain: MVEAEELAQLRLLNLELLRQLWVGQDAVRRSVARAASESSLESSSSYNSETPSTPETSSTSLSTSCPRGRSSVWGPPDACRGDLRDVARSGVASLPPAKCQHQESLGRPRPHSAPSLGTSSLRDPEPSGRLGDPGPQEAQTPRSILAQQSKLSKPRVTFSEESAVPKRSWRLRPYLGYDWIAGSLDTSSSITSQPEAFFSKLQEFRETNKEECICSHPEPQLPGLRESSGSGVEEDHECVYCYRVNRRLFPVPVDPGTPCRLCRTPRDQQGPGTLAQPAHVRVSIPLSILEPPHRYHIHRRKSFDASDTLALPRHCLLGWDIFPPKSEKSSAPRNLDLWSSVSAEAQHQKLSGTSSPFHPASPMQMLPPTPTWSVPQVPRPHVPRQKP

Variants of: B1
Conditions: with nup62_human NUP62, P37198
nup62_human NUP62, P37198, sequence (P37198 whole entry): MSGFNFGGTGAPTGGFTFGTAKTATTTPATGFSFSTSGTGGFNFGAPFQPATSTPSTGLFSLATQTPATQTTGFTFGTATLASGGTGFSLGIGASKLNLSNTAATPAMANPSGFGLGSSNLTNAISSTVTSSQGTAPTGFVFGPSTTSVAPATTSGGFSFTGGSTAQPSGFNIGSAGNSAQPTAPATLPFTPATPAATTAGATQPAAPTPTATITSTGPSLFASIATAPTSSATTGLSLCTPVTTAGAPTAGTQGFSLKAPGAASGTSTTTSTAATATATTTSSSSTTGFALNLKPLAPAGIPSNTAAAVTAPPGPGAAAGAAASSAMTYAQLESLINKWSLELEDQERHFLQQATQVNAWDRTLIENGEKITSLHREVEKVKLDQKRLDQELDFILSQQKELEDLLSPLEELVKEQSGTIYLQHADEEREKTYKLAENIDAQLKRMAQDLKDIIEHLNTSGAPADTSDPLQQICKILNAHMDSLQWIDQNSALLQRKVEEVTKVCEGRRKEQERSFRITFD

Variant	effect of a mutation on the interaction
N250S	with no effect

Variants of: B1
Conditions: with nup58_human NUP58, Q9BVL2
nup58_human NUP58, Q9BVL2, sequence (Q9BVL2 whole entry): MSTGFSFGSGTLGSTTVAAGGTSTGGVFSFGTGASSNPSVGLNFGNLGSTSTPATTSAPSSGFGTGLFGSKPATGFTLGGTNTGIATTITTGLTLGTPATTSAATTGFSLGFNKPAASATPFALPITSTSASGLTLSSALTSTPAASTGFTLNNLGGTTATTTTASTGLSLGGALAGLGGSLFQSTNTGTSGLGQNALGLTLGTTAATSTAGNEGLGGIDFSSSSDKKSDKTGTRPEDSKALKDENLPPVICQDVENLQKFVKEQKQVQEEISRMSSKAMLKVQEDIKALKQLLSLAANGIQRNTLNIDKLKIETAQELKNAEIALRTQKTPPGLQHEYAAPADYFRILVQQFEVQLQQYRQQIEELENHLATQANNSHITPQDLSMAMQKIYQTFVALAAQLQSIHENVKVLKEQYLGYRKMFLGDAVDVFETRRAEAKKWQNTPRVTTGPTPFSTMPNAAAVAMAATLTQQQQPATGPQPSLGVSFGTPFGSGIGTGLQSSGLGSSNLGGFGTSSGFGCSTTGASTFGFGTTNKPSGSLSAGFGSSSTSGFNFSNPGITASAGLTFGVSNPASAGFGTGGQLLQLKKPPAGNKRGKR

Variant	effect of a mutation on the interaction
N250S	with no effect

Variants of: B1
Conditions: with hgs_human HGS

Variant	effect of a mutation on the interaction
N250S	with no effect

Variants of: B1
Conditions: with KRT15, P19012
KRT15, P19012, sequence (P19012 whole entry): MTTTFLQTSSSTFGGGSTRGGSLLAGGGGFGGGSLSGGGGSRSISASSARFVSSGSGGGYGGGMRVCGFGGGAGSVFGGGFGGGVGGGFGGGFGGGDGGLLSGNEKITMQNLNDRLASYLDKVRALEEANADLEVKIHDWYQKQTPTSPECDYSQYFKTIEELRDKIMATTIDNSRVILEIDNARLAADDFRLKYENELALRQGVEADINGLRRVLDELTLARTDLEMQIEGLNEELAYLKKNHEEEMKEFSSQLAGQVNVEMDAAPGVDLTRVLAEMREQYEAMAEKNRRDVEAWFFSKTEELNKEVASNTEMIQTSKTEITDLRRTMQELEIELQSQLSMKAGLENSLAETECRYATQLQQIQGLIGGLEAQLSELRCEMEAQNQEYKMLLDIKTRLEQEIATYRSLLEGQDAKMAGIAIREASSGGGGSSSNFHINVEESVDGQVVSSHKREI

Variant	effect of a mutation on the interaction
N250S	with no effect

Variants of: B1
Conditions: with nup58_human NUP58, Q9BVL2
Remark: another data set of the same source

Variant	effect of a mutation on the interaction
T416A	with no effect

Variants of: B1
Conditions: with hgs_human HGS
Remark: another data set of the same source

Variant	effect of a mutation on the interaction
T416A	with no effect

Variants of: B1
Conditions: with nup62_human NUP62, P37198
Remark: another data set of the same source

Variant	effect of a mutation on the interaction
T416A	with no effect

Variants of: B1
Conditions: with KRT15, P19012
Remark: another data set of the same source

Variant	effect of a mutation on the interaction
T416A	with no effect

Variants of: B2
Conditions: with eif1a_human EIF1AD

Variant	effect of a mutation on the interaction
H57Q	with no effect
C236R	with no effect
A244P	with no effect
R348K	with no effect

Variants of: B3
Conditions: with stk16_human STK16, O75716
stk16_human STK16, O75716, sequence (O75716 whole entry): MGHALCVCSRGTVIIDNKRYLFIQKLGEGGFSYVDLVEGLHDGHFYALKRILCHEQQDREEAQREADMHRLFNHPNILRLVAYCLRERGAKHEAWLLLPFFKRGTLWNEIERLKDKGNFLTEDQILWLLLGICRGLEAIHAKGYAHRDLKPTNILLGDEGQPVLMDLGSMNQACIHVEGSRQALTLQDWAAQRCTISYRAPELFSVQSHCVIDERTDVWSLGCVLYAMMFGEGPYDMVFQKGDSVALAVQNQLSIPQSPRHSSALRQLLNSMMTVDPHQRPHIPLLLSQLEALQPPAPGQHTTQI

Variant	effect of a mutation on the interaction
R171C	with no effect
